Measured values published in the supplement of paper PMC9112550, “Optimization of the antimicrobial peptide Bac7 by deep mutational scanning” (BMC Biology, 2022).
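Also: peptides expressed intracellularly from a pBAD plasmid library in pooled LB shake-flask culture, induced with 0.3% L-arabinose, DNA abundance read by NGS, three biological replicates, DESeq2 with apeglm shrinkage.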

The sequences below were run on Escherichia coli TOP10 (assay: shrunken log2 fold change of peptide-encoding DNA abundance (4.5 h post-induction vs induction); higher = less antimicrobial activity (less host growth inhibition)). Conditions: time post-induction: 4.5 h; library: site-saturation at positions 5, 18, 19, 20.
For RRIRKRPPRLPRPRPRPEACPRP, the “shrunken log2 fold change” value was 0.0762. With RRIRFRPPRLPRPRPRPWSRPRP the “shrunken log2 fold change” value was -0.147. In the case of RRIRQRPPRLPRPRPRPAVCPRP, the “shrunken log2 fold change” value is reported as -0.197. With RRIRVRPPRLPRPRPRPGWFPRP the “shrunken log2 fold change” value was 0.22. With RRIRARPPRLPRPRPRPKGQPRP the “shrunken log2 fold change” value was 0.296. For RRIRLRPPRLPRPRPRPESRPRP, the “shrunken log2 fold change” value was 0.0418. For RRIRMRPPRLPRPRPRPMRVPRP, the “shrunken log2 fold change” value was 0.035. In the case of RRIRQRPPRLPRPRPRPSVAPRP, the “shrunken log2 fold change” value is reported as -0.0735. With RRIRCRPPRLPRPRPRPGPEPRP the “shrunken log2 fold change” value was 0.473. For RRIRTRPPRLPRPRPRPRPHPRP, the “shrunken log2 fold change” value was 0.296. For RRIRARPPRLPRPRPRPGVHPRP, the “shrunken log2 fold change” value was 0.243. RRIRCRPPRLPRPRPRPYKWPRP was tested, and the “shrunken log2 fold change” value was -0.636. In the case of RRIRSRPPRLPRPRPRPEWWPRP, the “shrunken log2 fold change” value is reported as 0.0594. With RRIRRRPPRLPRPRPRPPSCPRP the “shrunken log2 fold change” value was 0.301. In the case of RRIRHRPPRLPRPRPRPIGGPRP, the “shrunken log2 fold change” value is reported as 0.111. RRIRNRPPRLPRPRPRPQPFPRP was tested, and the “shrunken log2 fold change” value was -0.0278. In the case of RRIRHRPPRLPRPRPRPGKSPRP, the “shrunken log2 fold change” value is reported as -0.0128. RRIRKRPPRLPRPRPRPRARPRP was tested, and the “shrunken log2 fold change” value was 0.776. RRIRGRPPRLPRPRPRPQYIPRP was tested, and the “shrunken log2 fold change” value was -0.27. For RRIRGRPPRLPRPRPRPMDQPRP, the “shrunken log2 fold change” value was 0.489. For RRIRGRPPRLPRPRPRPNNIPRP, the “shrunken log2 fold change” value was -0.163. In the case of RRIRWRPPRLPRPRPRPKKPPRP, the “shrunken log2 fold change” value is reported as 0.558. RRIRQRPPRLPRPRPRPRDHPRP was tested, and the “shrunken log2 fold change” value was 0.423. For RRIRERPPRLPRPRPRPHAEPRP, the “shrunken log2 fold change” value was -0.0335. For RRIRCRPPRLPRPRPRPAVCPRP, the “shrunken log2 fold change” value was 0.297. In the case of RRIRPRPPRLPRPRPRPENMPRP, the “shrunken log2 fold change” value is reported as -0.395. With RRIRDRPPRLPRPRPRPLDLPRP the “shrunken log2 fold change” value was -0.116. RRIRCRPPRLPRPRPRPEMTPRP was tested, and the “shrunken log2 fold change” value was 0.517. In the case of RRIRMRPPRLPRPRPRPMKRPRP, the “shrunken log2 fold change” value is reported as 0.573. RRIRQRPPRLPRPRPRPWHHPRP was tested, and the “shrunken log2 fold change” value was -0.00612. With RRIRPRPPRLPRPRPRPKRPPRP the “shrunken log2 fold change” value was 0.465. RRIRDRPPRLPRPRPRPKQVPRP was tested, and the “shrunken log2 fold change” value was -0.185. For RRIRIRPPRLPRPRPRPRWMPRP, the “shrunken log2 fold change” value was 0.341. RRIRRRPPRLPRPRPRPYNYPRP was tested, and the “shrunken log2 fold change” value was -0.501. With RRIRGRPPRLPRPRPRPPCNPRP the “shrunken log2 fold change” value was 0.489. In the case of RRIRERPPRLPRPRPRPSTKPRP, the “shrunken log2 fold change” value is reported as -0.232. With RRIRVRPPRLPRPRPRPESHPRP the “shrunken log2 fold change” value was -0.138. RRIRNRPPRLPRPRPRPFDIPRP was tested, and the “shrunken log2 fold change” value was -0.701. With RRIRCRPPRLPRPRPRPIFDPRP the “shrunken log2 fold change” value was -0.191. In the case of RRIRDRPPRLPRPRPRPNHYPRP, the “shrunken log2 fold change” value is reported as -0.459. RRIRCRPPRLPRPRPRPGGPPRP was tested, and the “shrunken log2 fold change” value was 0.108. For RRIRLRPPRLPRPRPRPTESPRP, the “shrunken log2 fold change” value was 0.0515. For RRIRGRPPRLPRPRPRPEVIPRP, the “shrunken log2 fold change” value was 0.073. RRIRPRPPRLPRPRPRPSPEPRP was tested, and the “shrunken log2 fold change” value was -0.0109. RRIRDRPPRLPRPRPRPKLLPRP was tested, and the “shrunken log2 fold change” value was 0.0314. RRIRMRPPRLPRPRPRPYRNPRP was tested, and the “shrunken log2 fold change” value was -0.18. RRIRCRPPRLPRPRPRPWPKPRP was tested, and the “shrunken log2 fold change” value was 0.0772. For RRIRNRPPRLPRPRPRPLWIPRP, the “shrunken log2 fold change” value was -0.286. RRIRARPPRLPRPRPRPEICPRP was tested, and the “shrunken log2 fold change” value was 1.01. With RRIRERPPRLPRPRPRPCMLPRP the “shrunken log2 fold change” value was -0.241. With RRIRRRPPRLPRPRPRPHIYPRP the “shrunken log2 fold change” value was -0.0628. RRIRERPPRLPRPRPRPVMFPRP was tested, and the “shrunken log2 fold change” value was 0.934. For RRIRIRPPRLPRPRPRPGCNPRP, the “shrunken log2 fold change” value was -0.247. With RRIRCRPPRLPRPRPRPHEVPRP the “shrunken log2 fold change” value was 0.104. RRIRNRPPRLPRPRPRPLGCPRP was tested, and the “shrunken log2 fold change” value was -0.27. With RRIRYRPPRLPRPRPRPAIDPRP the “shrunken log2 fold change” value was -0.0997. For RRIRFRPPRLPRPRPRPDLTPRP, the “shrunken log2 fold change” value was -0.181. For RRIRCRPPRLPRPRPRPWIHPRP, the “shrunken log2 fold change” value was -0.277. For RRIRIRPPRLPRPRPRPEPVPRP, the “shrunken log2 fold change” value was 0.14. With RRIRWRPPRLPRPRPRPVGQPRP the “shrunken log2 fold change” value was 0.413. For RRIRGRPPRLPRPRPRPQIRPRP, the “shrunken log2 fold change” value was 0.808. For RRIRRRPPRLPRPRPRPAAPPRP, the “shrunken log2 fold change” value was 0.922. In the case of RRIRYRPPRLPRPRPRPFLKPRP, the “shrunken log2 fold change” value is reported as -0.122. RRIRERPPRLPRPRPRPRHWPRP was tested, and the “shrunken log2 fold change” value was 0.0819. With RRIRLRPPRLPRPRPRPTPGPRP the “shrunken log2 fold change” value was 0.557. In the case of RRIRDRPPRLPRPRPRPQKDPRP, the “shrunken log2 fold change” value is reported as -0.294. With RRIRSRPPRLPRPRPRPSPCPRP the “shrunken log2 fold change” value was -0.04. RRIRTRPPRLPRPRPRPRWEPRP was tested, and the “shrunken log2 fold change” value was 0.0443. For RRIRMRPPRLPRPRPRPHRWPRP, the “shrunken log2 fold change” value was 0.478. For RRIRFRPPRLPRPRPRPMLRPRP, the “shrunken log2 fold change” value was 0.0268. In the case of RRIRNRPPRLPRPRPRPTIAPRP, the “shrunken log2 fold change” value is reported as -0.277. With RRIRPRPPRLPRPRPRPLNNPRP the “shrunken log2 fold change” value was -0.541. In the case of RRIRDRPPRLPRPRPRPEWHPRP, the “shrunken log2 fold change” value is reported as 0.623. RRIRKRPPRLPRPRPRPPFDPRP was tested, and the “shrunken log2 fold change” value was 0.586. With RRIRWRPPRLPRPRPRPTENPRP the “shrunken log2 fold change” value was 0.0907.
